Data taken from the DeepSol protein solubility set.

Assay: soluble on expression in E. coli; label from the status in PepcDB or PDB records

Sequence	soluble on expression in E. coli
MARKKKTRRITDIMPIRKADKKIDITKARSGKKLTCYELDAKAREDKKKRKHKGLASGSRHSAVEEKANKLQNEIKDPKIGSKKKIPLVVEFVNKPEKGQVIPVIKQVKKQDPMKELENLENNEILNELLDALDAGKTISKSDQQFVDECLDRISELMEELGIEDEDESEDDLYRTFERMDINQFR	not soluble
MPDLMHSELTMSGPEQSLLAGALLGAGLPADAHRHLELAGRDYQSEALAEQHLREAHLLAPDHAAVLIGLYRFYFYKGRLGEALEVAQACLCKAARDNGLASDWRKVRRGDAEFSSYSAVLPRFYLFALKAYAYLQMRLGQLDEGHAAVEKLLELDPTDKVGAAVLLDVWRRIGLEHHHHHH	not soluble
MTTMTNSLISNSVSSVPESLFSSASIHRPVAINPAMLAQFSINLPVLPFESSASLGTSTTSSSRCSSTESSAAPGKIRRGRPQQEIADGQDAHSQKKRHRRLYARQYRAQMRQKVENVKSLHDEKEQLELEVKALRQAVSGLQQENAQKDFLISILQLNNQINHS	not soluble
MGSDKIHHHHHHMSTEPLASRMRPKNIDEIISQQHLVGPKGIIRRMVDTKKLTSMIFYGPPGIGKTSIAKAISGSTQYKFRQLNAVTNTKKDMQLVVEEAKMSGQVILLLDEIHRLDKAKQDFLLPHLENGKIVLIGATTSNPYHAINPAIRSRAQIFELYPLNDEDVRQALTRAIEDDENGLKTYQPKIDEDAMTYFSTQSQGDVRSALNALELAVLSADNDKDGYRHVTLQDAKDCLQKGAFVSDKDGDMHYDVMSAFQKSIRGSDVNAALHYLARLIEAGDLPTIVRRLLVISYEDIGLASPNAGQRTLAAIESAERLGLPEARIPLSQAVIELCLSPKSNSAMSAIDSALSDIRNGHVGQIPNHLKDGHYQGAKDLGRSIGYKYPHQYVNGYVSQQYLPDKLKNKIYYEPKTTSKSEQQLKEIYNNLLKQRP	not soluble
MSLTVIITGASSGIGAGLAKSFAADGHLVIACGRDASRLAALQQLSPNISVRLFDMTDRDACRQALTGCFADLIILCAGTCEYLDHGQVDAALVERVMATNFLGPVNCLAALQTQLEAGDRVVLVSSMAHWLPFPRAEAYGASKAALTWFANSLRLDWEPKGVAVTVVSPGFVDTPLTRKNDFAMPGRVSVDRAVAAIRHGLAKGKNHIAFPTGFSLALRLLASLPSGIQRLLLRRMVRSEGHHHHHH	soluble
GPGSMSDSTTEKIFLLYATFSEIHRELLMEHHKTHPEHKTYMDILNYLREEEGVKQSLLKKNSNWEILQQKKLTAIENVAISVKREIPGGFSNSAIVRNALPHAVVLSGFSTSSQTNENWVRLHMQLLDEQTKLVREYNDKRFLNASVKRMIVLCHEHGCDGVAGRLKREFGVSDKMHCWSMLDAYTTMSQWGLIDQLGDVKNKNKPVIGASAFINTLLACGRQEQAKQYIHKIPQIEQRMEYYLLCSDWEGAGADCRRHGEPDLLTQLKDRVKGDASAVQLIDKGWNSVQESGAVKLAKLFA	not soluble
MGSDKIHHHHHHMTLQQLRQVLTIAESNSMNEAAKKLFVSQPNLSATVREVEEELGITVFMRNNRGITVTAEGEEFLGYAKQVVEQYHLLENRYLNVESKKKFSVSMQHYSFAVKAFVQLAKEVGMDEYEFAVHETKTKEVIDNVKNLKSEIGVLYLSDFNEKVLRKLFKECDIEFKELFTCNTYVYLWKKHPLAGQKEITLDDLQEYPCLTFEQGVNNSFYYAEEMMSTYEYKRVIKADDRATMLNLMVGLNGFTLCSGIISEDLNGDDYAAIPLKESEKMHIGYIKHKGTKLSKLGEIYIDALKNYENKVL	not soluble
MKNDEVLLSIKNLKQYFNAGKKNEVRAIENISFDIYKGETLGLVGESGCGKSTTGKSIIKLNDITSGEILYEGIDIQKIRKRKDLLKFNKKIQMIFQDPYASLNPRLKVMDIVAEGIDIHHLATDKRDRKKRVYDLLETVGLSKEHANRYPHEFSGGQRQRIGIARVLAVEPEFIIADEPISALDVSIQAQVVNLLLKLQRERGITFLFIAHDLSMVKYISDRIAVMHFGKIVEIGPAEEIYQNPLHDYTKSLLSAIPQPDPESERSRKRFSYIDDEANNHLRQLHEIRPNHFVFSTEEEAAQLRENKLVTQN	not soluble
MAHHHHHHMEQRELEKLFAPYGQILSAAVMRNIHTGNSLGTAFVRYASTEEAMSAIKGMSGKRIGGRAIAVQWAKKQHDYAPVGEARKKISKLFVRNIPLDINTVVLEDMFSMYGPVKSVSIHKDTAPDCDKNFERHIAFITFLADGAAERAAEAVHNTRPFPSCGKVPLMVKLAEDAPQRIHHGTGSKNSANALRTKQQLQGDMSAMSSGQEQFFDAPAVQQCFPTGTGTGAMVVAPTSYFSLLASGGLILPGSLPGAVMGSEAPYPWRTRVTWPQGTGVPFPFYNGGAAATAANPLAPSNACATPPSGSPVSCMNNGGFTSFPMYTTPFCPSTSPGLSGTQADSVAGSPLILPSSLHQ	not soluble
MKMVTGAVASVLEDEATDTSDSEGSCGSEKDHFYSDDDAIEADSEGDAEPCDKENENDGESSVGTNMGWADAMAKVLNKKTPESKPTILVKNKKLEKEKEKLKQERLEKIKQRDKRLEWEMMCRVKPDVVQDKETERNLQRIATRGVVQLFNAVQKHQKNVDEKVKEAGSSMRKRAKLISTVSKKDFISVLRGMDGSTNETASSRKKPKAKQTEVKSEEGPGWTILRDDFMMGASMKDWDKESDGPDDSRPESASDSDT	not soluble
MEEELQHSHCVNCVSRRCMTRPEPGISCDLIGCPLVCGAVFHSCKADEHRLLCPFERVPCLNSDFGCPFTMARNKVAEHLEMCPASV	soluble
MSLKYLIDLHTHTIVSGHAYTTLLENIKQASQIGIKILGTSEHGPKMPGAPHIWYFGNMNKVPRKIYDVTVLRGCEADILNSNGDLDIPERIQNELDYIIASLHDVCIEPGTIEDNTKALLNAMNNPNIDILGHTGNPMYPIDIDAVVSKAKEKNVLIEINNGSLSGSREGSYDNCKKIAQACKKKGVKVILGTDSHISFTIGNFDKVQKLLDSVDMPKELIMNTDEKKIVEYLKAKGKLKNEGHHHHHH	soluble
MSFAIEIVIKAPMDIVCDYIIEDEKIKEWNTFIIENRYPSNMDKENPRVGDKYITVQKVGKKIFEAEVEILEYDAPHIISLGSEMKQGYSAMTYMLEEDEEGTALTLISEYEPSNFYYKMMYKLTGWISRGLTMEQMERLAECVEAAYHKEDLEHHHHHH	not soluble
MLRHSPSLWELVEEHVPLRERREVKRILGEAAVDLSLELRAEVAMLRALLQEARSSQAPSSRPISDPSSLLAPPPLLKDLLRQELRQLLQGLRHKAICEGRDQAQAWVQYSPRVLHFALEEPRCDLPEQEIFQMRGGGPSSGHRDLSIIKDQLNVSNIDQVARHLRGLLEEECHTLEREILILQRCLEEEYLRPCHPSEAALEPTLAELKEQKKAMEQELQASVGPSCVSPNHRQRPLGSSTQGLRPPLPLCGVAPLQCCLPAPPLEPYLRPRGQSATHRWGRQLQCSPREGPASTPMSSAAPQAPA	soluble
MKLAVITDSTATLPTDLKQDKAIFSLDIPVIIDDETYFEGRNLSIDDFYQKMADSQNLPKTSQPSLSELDNLLGLLSSKGYTHVIGLFLAGGISGFWQNIQFLAEEHPEIEMAFPDSKITSAPLGSMVKNVLDWSRQGMTFQAILNKLQEQIDGTTAFIMVDDLNHLVKGGRLSNGSALLGNLLSIKPILRFDEEGKIVVYEKVRTEKKAMKRLVEILNDLIADGQYNVFIIHSKAQDKADYLKRLLQDSGYQYDIEEVHFGAVIATHLGEGAIAFGVTPRL	not soluble
GPGSMSTTSSPDEASCDVEKEGKGISPVTRTGKRFAECALMDLPDKYSSAFPYLRGARLFFFDVVSKLNRIGARNKRVVFVTDYTIGVASKRGHVSRCAKVEDISELICDAQTRALGVRMRSRPFAIVPKDFSRWNCFHEMPVDLLLHATSAAQYEALINVLSFVHHTSTHEALLCRSLKQYETWKASLVLAPDGSRVKKAVQYYAIPVTPSERSTDAATLSATRSQETSASLSAVRAPRQVALLSAGDSASRFTSGPDVSATAPKLRHWSSLGASSSFTPSGVGGHRTALGLSPFSLSPSPAPPLVEFSRDIEAVPTSATRRGVNPLLKADRKAPNAS	not soluble
MSQIMYNYPAMLGHAGDMAGYAGTLQSLGAEIAVEQAALQSAWQGDTGITYQAWQAQWNQAMEDLVRAYHAMSSTHEANTMAMMARDTAEAAKWGG	not soluble
MSLEIGEKLRNLRIQKNLTQEELGERTDLSKGYISQLERDLSSPSMETFFSILEVLGVTPEQFFSQQPLEQKIVYNEEESTLYYDEEHGYELKWLIPASNEKEMEPVIITFDKNGEYKTFEPSLSETFIYVIDGSIRLTLGEATYIAKKGQTMYYQATEPHQISNNGRGKSRALIVATESYLEGGSHHHHHH	soluble
MQVSVTGDFVGHIQELIRTEVLPYQWEALNDQIAGAEPSHCLDNFRAAAEKKGHIQFHGQPFQDSDIYKWIEAAAYTLAWHPDSDLEAKADQAIELICGAQQPDGYLNTYFILTGAQRWTHLLDGHELYCAGHLMEAAVAYYHATGKDKLLKAAQKLADHIADVFGTSPGKIPGYPGHPEVELALIRLFEATGNIKYQQLAQYFICQRGASPSIFRKEADQFGWDWADSPFQFQFYQAGKPILEQTELEGHAVRALYLCCGIADVAARTQDAALLETCRRLWEDLTQTKLYITGGAGSSVYGEAFTFAYDLPNDTAYAETCAAVAVCFFAQRMMKISPSGAYGDVLEQALYNGVLSGMALDGKSFFYVNPLEVVPEACQKDQRKKHVKPIRQKWFACACCPPNLARLFASIGGYLHFIRAETLYTNLYVTSTSEFTFQGLPIKLHMDSAYPFDEKIHISLSLPRPMEFSYAVRIPAWCADYHVLINGKICAGTLKDGFLYLHRCWRDGDEVELTLSMPVRVVRANSLVRENIGKSAICRGPIVYCMEQLEHHHHHH	not soluble
MRLPPMLDNLTRMARMNDNQHRFALSDLYRFVNGPWLDSHVIPEDRGVDGIFHGLRDRAEEDVHTIVMDSADSLAGKLYASFMDTEGIESAGVAALDKDLTLIDVATVPEFVQALGALDRVGVGGPVGFWVAKDSAGDKSVAYIMQSGITLPDEAYYREESHAQTREAYQKHVEKMLGFLAPEQLGTTPIDAATRILALETDIAAAHWDVVQRRDAVKTFNPTEMAELPPQVAALLRAAGLPEHRVISMMPSYFEALESLLTPQRLDDWKLLTTWRILHSRAGVLTPEISRADFEFFGTTLSGATQQRDRWKRALGLAESFVGEEIGALYVERHFPESSKKDMLSLVSYLIEAYRERISGLSWMTPETRERALDKLDKFNAKIGYPDSWRSYAGLEFSAKGTDLL	not soluble
MRGMAANQGERIRRRLSTGERREQLLSVGARLFSESPYDEVWIEQVAEIAGVSRGLLYHYFPNKRDFFAAVVERESERMLRMTAAVPGVPVREQLTAGLDAYLEYVRAHAHGYRAFHRADAAGDRAVRRVYQKALAAQERQILAALAADPEFGPAFEERGDVRLAVRGWLAFTTAVCLEWLRDPEPAREQVRDLCARALLGAVAP	not soluble
MERGQSLALQSNRNRPYMIRIIQPILRSERRRKLGREYFILHRKLSDCFSSIKWALPAKGDNSHGCSYPVMEHRSLIMRRLKDVDMYMQENKRTNLRLAISKLHGMIIRPGETFSVWRHVGRPTARKGYLEGLVLSQGKIGKGVGGGLCQLGNLLFWMFAHTPLSIVERHRHSFDVFPDINRSIPFGAGATLSYNYIDLRVSNNTPHTYRLELWLDDTHLNGRISSDTEQRDRYRIEETDHRIEHQSWGGYTRHNKLVRIVTRADGSEYTEPFVENHAIMMYNPLLSPPQNGASTSFQR	not soluble
